Measurements as given in patent US9908923.

Target: CXCR4 (full-length receptor) (UniProt P61073)
Assay: cell-based or functional assay

CXCR4 (full-length receptor), sequence (P61073 whole entry): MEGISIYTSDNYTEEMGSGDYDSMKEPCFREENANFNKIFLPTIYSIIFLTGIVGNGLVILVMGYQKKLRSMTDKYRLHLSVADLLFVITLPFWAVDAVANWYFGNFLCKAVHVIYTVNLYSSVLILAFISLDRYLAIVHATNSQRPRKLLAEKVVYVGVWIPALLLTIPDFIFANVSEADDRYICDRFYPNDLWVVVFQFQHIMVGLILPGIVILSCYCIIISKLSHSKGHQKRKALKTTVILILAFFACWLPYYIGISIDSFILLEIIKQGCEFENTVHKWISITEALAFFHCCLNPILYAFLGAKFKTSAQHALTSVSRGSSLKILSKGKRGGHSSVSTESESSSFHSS

Row | Substance | calcium flux EC50 against unmutated CXCL12 [fold]
1 | CXCL12 Asn33 to glutamine mutant (from UniProt P48061 22-89) (ligand) | 6
2 | CXCL12 Asn33 to alanine mutant (from UniProt P48061 22-89) (ligand) | 6
3 | CXCL12 Asn33 to arginine mutant (from UniProt P48061 22-89) (ligand) | 6
